No end group written: not given here. SUMO = small ubiquitin-like modifier
Columns and labels:
dansylated CaM7 = dansylated CaM7 (Arabidopsis thaliana, UniProt P59220 1-149, dansyl (labelled with dansyl chloride; sites not stated)); experiment: other fluorescence titration
SEC = molecular target: the molecule itself; experiment: SEC

Row | Binder | Kd (dansylated CaM7) [nM] | stoichiometry N (SEC)
1 | SUMO-AtFBA5 (Arabidopsis fructose bisphosphate aldolase 5 with N-terminal His-SUMO tag) (enzyme, Arabidopsis thaliana, UniProt O65581 1-358, looked up) MSAFVGKYADELIKTAKYIATPGKGILAADESTGTIGKRFASINVENIESNRQALRELLFTSPGTFPCLSGVILFEETLYQKTTDGKPFVELLMENGVIPGIKVDKGVVDLAGTNGETTTQGLDSLGARCQEYYKAGARFAKWRAVLKIGATEPSELSIQENAKGLARYAIICQENGLVPIVEPEVLTDGSHDIKKCAAVTETVLAAVYKALNDHHVLLEGTLLKPNMVTPGSDSPKVAPEVIAEYTVTALRRTVPPAVPGIVFLSGGQSEEEATLNLNAMNKLDVLKPWTLTFSFGRALQQSTLKAWAGKTENVAKAQATFLTRCKGNSDATLGKYTGGASGDSAASESLYEEGYKY | 190 | 4
2 | {SUMO}-IKKCAAVTETVLAAVYKALN (domain or fragment, not fully specified) [SUMO-AtFBA5 CaMBD (residues 194-213)] | 290 ± 130 | 
3 | SUMO-AtFBA4 (Arabidopsis fructose bisphosphate aldolase 4 with N-terminal His-SUMO tag) (enzyme, Arabidopsis thaliana, UniProt F4KGQ0 1-393, looked up) MSCFKSKFAGKSYFRRTFHSSIIQFHPQLSILIWHRRYSIIRTYELIANAAYIGTPGKGILAADESTGTIGKRFVSINVENVESNRRALRELLFTTPGALQYISGIILFEETLYQKTASGKLFVDVMKEAGVLPGIKVDKGTVELAGTNGETTTTGLDGLGDRCKKYYEAGARFAKWRAVLKIGNNEPSELAIHENAYGLARYAVICQENGLVPIVEPEILVDGSHDIEKCAYVTERVLAACYKALSDHHVILEGTLLKPNMVTPGSDSGSKVKPEVIAKHTVRALQRTVPAAVPAVVFLSGGQSEEEATVNLNAINQLKGKKPWSLTFSYGRALQQSTLKAWGGKEENVDKAQKAFLARAKANSEATLGGYKGDAQLGEGASESLHVKDYKY |  | 4

Reference: publication doi:10.1101/2024.03.29.587371 (bioRxiv, 2024)
